Measured values reported in patent US20220119490A1 (Genentech, published 2022).
Values belong to the binder of their own block, whether it stands above or below them.

Experiments:
[1] = molecular target: T1, BTN3A1 full-length (co-IP) (human, UniProt O00481 30-513); assay: co-immunoprecipitation from co-transfected cells, IP anti-FLAG, western blot anti-HA
T1 construct: whole, on cells; also called BTN3A1-HA

[2] = molecular target: T2, PTPRS expressed on cells (human, UniProt Q13332 30-1948); assay: cell surface interaction assay: streptavidin-tetramerized biotinylated ECD on transfected cells, immunofluorescence
T2 construct: whole, on cells; also called receptor-type tyrosine-protein phosphatase S

[3] = molecular target: T3, PTPRD expressed on cells (human, UniProt P23468 21-1912); assay: as above
T3 construct: whole, on cells; also called receptor-type tyrosine-protein phosphatase delta

[4] = molecular target: T4, PTPRM expressed on cells (human, UniProt P28827 21-1452); assay: cell surface interaction assay: query ECD tetramerised with fluorescent streptavidin on transfected cells, immunofluorescence
T4 construct: whole, on cells

[5] = molecular target: T5, PTPRZ1 expressed on cells (human, UniProt P23471 25-2315); assay: as above
T5 construct: whole, on cells

[6] = molecular target: T6, PTPRF expressed on cells (human, UniProt P10586 30-1907); assay: as above
T6 construct: whole, on cells; also called receptor-type tyrosine-protein phosphatase F

[7] = molecular target: T7, PTPRG expressed on cells (human, UniProt P23470 20-1445); assay: as above
T7 construct: whole, on cells

[8] = molecular target: T8, PTPRT expressed on cells (human, UniProt O14522 26-1441); assay: as above
T8 construct: whole, on cells
T8 sequence (looked up): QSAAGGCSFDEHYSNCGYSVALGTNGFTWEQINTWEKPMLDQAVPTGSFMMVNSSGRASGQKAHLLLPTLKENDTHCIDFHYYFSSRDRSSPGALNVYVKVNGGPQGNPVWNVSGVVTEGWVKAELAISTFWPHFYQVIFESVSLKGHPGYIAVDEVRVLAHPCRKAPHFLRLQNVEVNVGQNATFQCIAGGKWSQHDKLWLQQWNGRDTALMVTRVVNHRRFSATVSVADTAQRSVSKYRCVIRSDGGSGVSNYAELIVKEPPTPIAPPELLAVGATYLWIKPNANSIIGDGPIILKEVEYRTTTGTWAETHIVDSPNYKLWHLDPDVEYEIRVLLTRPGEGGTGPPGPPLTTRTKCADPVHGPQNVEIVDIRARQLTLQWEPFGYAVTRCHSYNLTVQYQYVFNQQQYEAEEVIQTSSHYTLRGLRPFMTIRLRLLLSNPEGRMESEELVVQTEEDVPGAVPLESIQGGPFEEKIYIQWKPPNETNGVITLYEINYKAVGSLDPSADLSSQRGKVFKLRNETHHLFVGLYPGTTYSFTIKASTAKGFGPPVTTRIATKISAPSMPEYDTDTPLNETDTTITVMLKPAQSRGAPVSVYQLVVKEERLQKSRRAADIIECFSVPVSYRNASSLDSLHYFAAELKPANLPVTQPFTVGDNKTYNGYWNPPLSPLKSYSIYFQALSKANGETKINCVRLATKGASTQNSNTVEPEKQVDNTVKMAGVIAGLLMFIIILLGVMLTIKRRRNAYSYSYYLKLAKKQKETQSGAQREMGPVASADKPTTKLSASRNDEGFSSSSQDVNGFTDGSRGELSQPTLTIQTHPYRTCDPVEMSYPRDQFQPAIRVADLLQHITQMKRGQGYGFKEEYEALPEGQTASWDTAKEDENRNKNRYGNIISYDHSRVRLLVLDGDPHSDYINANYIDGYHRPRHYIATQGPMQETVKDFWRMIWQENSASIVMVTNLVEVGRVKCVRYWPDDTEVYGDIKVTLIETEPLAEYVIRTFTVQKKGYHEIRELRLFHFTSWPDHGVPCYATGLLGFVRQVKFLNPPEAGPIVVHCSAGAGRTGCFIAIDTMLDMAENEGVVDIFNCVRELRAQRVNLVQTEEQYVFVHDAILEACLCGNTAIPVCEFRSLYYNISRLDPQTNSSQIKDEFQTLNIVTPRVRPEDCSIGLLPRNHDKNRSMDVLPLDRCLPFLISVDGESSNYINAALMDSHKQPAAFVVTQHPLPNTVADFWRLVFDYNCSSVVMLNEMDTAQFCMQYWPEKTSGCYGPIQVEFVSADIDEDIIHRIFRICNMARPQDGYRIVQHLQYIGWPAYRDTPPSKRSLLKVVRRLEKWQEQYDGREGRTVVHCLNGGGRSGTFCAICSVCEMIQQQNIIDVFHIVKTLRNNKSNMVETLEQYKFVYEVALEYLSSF

[9] = molecular target: T9, PTPRO expressed on cells (human, UniProt Q16827 30-1216); assay: as above
T9 construct: whole, on cells
T9 sequence (looked up): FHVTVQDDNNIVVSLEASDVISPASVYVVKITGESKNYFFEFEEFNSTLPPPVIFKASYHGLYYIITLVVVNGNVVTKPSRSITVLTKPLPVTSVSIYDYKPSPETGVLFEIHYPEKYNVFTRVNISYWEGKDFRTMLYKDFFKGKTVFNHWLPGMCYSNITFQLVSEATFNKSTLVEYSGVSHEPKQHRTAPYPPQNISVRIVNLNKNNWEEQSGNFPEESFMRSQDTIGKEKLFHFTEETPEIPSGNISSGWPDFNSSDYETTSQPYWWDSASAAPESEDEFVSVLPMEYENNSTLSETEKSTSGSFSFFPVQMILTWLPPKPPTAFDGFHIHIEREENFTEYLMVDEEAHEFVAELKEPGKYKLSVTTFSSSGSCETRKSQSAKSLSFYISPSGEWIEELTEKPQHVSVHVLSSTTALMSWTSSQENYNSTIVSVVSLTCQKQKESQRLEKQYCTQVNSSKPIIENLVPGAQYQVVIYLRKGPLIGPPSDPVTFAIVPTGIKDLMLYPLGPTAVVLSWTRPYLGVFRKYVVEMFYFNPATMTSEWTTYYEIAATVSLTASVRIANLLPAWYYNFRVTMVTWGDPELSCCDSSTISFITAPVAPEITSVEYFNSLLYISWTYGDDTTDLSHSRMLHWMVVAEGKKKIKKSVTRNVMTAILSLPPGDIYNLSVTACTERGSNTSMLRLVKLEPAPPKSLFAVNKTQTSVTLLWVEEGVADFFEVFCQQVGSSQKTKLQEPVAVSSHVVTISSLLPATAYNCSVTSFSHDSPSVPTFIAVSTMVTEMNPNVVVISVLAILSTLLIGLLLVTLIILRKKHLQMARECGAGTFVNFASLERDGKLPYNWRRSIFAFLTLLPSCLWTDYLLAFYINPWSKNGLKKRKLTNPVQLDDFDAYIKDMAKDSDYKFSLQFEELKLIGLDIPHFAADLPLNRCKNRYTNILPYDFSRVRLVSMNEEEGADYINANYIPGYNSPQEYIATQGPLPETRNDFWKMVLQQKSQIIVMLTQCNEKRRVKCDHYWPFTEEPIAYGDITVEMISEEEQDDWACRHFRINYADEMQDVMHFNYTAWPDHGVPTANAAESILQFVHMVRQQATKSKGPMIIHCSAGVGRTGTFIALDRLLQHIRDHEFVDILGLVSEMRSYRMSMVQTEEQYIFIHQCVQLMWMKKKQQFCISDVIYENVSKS

[10] = molecular target: T10, LRRC4B expressed on cells (human, UniProt Q9NT99 36-713); assay: as above
T10 construct: whole, on cells; C-terminally tagged in the co-IP; also called NGL-3; LRRC4B-FLAG
T10 sequence (looked up): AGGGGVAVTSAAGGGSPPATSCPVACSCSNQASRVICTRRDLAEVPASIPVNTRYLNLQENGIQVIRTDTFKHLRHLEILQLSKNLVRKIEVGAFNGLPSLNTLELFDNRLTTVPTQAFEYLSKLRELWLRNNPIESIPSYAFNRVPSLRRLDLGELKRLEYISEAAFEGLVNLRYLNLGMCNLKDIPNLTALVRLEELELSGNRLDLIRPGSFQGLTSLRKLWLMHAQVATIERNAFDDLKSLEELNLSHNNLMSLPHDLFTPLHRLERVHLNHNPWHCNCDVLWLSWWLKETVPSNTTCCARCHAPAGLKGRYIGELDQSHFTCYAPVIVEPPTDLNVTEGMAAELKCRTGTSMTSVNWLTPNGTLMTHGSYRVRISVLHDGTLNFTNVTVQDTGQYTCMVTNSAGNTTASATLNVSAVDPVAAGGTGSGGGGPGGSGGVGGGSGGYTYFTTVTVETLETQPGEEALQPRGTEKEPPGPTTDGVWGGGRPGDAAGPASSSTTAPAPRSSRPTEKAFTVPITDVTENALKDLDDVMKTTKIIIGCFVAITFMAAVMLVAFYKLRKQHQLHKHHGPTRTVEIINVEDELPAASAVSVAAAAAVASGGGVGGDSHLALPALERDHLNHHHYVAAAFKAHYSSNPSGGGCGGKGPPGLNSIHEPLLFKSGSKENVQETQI

T2 sequence (Q13332 30-1948): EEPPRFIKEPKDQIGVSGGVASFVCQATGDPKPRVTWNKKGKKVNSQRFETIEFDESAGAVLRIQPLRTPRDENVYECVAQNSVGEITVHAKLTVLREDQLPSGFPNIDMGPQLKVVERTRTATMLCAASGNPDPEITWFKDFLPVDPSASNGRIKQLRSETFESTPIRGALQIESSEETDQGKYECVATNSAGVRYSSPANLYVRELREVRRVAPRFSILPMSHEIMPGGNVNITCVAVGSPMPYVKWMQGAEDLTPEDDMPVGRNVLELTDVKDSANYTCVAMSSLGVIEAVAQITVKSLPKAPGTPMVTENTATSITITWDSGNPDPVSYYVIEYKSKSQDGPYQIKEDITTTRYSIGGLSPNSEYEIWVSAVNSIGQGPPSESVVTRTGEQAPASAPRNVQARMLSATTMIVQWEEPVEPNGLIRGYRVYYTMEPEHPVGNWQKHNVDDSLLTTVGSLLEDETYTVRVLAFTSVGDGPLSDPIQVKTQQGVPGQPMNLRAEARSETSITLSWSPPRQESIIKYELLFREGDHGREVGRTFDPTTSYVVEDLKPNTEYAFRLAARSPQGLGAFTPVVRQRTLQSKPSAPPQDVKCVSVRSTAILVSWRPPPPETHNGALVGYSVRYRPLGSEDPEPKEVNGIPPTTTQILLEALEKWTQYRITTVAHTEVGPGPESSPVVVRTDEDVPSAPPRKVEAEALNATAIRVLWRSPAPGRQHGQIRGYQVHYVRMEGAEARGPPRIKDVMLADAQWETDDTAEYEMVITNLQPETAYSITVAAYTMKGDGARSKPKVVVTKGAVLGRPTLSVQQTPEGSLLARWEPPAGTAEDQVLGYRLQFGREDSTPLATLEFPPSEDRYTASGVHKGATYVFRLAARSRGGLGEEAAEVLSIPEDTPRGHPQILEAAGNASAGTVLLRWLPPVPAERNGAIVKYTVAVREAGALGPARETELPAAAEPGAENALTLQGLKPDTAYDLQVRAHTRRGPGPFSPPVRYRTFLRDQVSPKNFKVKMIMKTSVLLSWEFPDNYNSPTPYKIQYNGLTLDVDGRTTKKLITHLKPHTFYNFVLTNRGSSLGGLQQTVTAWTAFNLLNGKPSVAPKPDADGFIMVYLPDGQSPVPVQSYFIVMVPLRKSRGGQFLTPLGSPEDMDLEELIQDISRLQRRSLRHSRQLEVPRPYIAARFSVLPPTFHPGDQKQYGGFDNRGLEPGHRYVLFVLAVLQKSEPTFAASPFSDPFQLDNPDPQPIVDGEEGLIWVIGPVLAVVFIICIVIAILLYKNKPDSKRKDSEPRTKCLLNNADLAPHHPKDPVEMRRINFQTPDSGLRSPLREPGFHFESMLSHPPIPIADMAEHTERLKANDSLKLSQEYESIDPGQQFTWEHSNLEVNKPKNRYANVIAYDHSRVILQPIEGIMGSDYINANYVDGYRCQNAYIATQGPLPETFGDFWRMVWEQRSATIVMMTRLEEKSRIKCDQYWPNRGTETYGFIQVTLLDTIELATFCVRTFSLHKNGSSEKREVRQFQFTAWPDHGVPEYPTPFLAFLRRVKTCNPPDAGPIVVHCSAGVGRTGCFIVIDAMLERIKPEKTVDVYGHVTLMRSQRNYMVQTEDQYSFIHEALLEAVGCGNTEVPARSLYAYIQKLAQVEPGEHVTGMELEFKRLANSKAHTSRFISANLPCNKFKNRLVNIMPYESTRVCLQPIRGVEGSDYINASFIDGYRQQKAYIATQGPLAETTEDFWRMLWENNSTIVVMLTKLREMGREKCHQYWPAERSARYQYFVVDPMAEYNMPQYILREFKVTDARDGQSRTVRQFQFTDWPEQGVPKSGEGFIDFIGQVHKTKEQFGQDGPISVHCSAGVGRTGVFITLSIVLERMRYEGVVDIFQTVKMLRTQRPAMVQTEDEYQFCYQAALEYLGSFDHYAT
T3 sequence (P23468 21-1912): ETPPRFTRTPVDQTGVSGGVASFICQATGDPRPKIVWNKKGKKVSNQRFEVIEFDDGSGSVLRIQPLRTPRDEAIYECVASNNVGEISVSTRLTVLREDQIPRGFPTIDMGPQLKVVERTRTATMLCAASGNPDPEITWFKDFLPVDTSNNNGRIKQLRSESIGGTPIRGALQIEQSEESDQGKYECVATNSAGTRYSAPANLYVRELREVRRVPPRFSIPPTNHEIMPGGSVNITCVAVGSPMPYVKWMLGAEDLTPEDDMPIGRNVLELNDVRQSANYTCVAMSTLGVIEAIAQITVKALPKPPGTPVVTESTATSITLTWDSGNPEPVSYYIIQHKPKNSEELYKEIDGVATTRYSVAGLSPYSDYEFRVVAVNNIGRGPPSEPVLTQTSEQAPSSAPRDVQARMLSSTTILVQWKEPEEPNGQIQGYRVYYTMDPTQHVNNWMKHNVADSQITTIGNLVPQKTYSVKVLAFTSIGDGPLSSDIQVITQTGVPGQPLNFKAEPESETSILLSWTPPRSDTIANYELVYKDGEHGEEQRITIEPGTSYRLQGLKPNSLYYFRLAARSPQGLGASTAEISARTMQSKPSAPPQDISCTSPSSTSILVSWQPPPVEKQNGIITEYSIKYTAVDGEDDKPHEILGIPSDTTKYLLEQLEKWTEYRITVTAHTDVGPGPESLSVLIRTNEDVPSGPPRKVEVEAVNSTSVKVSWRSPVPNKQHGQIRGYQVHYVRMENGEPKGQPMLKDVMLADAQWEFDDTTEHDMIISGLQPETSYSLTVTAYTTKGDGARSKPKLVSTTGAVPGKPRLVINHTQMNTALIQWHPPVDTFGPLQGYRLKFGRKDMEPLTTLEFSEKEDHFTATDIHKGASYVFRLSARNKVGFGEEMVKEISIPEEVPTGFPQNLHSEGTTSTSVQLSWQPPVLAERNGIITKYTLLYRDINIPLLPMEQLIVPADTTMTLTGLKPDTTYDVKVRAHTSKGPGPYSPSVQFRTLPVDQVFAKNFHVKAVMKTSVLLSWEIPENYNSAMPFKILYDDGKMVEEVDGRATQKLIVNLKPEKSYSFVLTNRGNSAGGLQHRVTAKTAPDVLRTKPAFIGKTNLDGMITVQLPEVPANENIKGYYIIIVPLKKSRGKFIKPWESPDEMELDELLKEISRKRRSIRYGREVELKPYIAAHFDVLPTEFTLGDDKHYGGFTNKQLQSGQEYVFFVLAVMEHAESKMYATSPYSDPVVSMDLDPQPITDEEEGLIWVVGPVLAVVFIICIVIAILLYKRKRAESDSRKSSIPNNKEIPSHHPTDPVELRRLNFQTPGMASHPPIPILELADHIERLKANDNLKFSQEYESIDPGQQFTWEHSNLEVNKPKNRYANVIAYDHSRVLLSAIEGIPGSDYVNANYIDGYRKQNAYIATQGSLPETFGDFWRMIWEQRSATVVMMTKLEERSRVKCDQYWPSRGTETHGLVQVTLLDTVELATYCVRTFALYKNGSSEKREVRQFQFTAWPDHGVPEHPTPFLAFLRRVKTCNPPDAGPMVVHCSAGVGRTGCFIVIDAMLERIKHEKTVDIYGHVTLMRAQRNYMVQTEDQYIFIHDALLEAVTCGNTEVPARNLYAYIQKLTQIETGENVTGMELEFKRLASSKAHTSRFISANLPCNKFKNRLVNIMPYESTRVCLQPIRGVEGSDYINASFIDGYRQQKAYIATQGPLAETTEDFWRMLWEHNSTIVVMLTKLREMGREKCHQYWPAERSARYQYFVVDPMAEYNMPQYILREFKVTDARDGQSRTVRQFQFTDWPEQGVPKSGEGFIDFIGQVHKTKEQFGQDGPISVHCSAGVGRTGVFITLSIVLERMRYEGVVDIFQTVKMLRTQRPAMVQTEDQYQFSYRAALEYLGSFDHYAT
T1 sequence (O00481 30-513): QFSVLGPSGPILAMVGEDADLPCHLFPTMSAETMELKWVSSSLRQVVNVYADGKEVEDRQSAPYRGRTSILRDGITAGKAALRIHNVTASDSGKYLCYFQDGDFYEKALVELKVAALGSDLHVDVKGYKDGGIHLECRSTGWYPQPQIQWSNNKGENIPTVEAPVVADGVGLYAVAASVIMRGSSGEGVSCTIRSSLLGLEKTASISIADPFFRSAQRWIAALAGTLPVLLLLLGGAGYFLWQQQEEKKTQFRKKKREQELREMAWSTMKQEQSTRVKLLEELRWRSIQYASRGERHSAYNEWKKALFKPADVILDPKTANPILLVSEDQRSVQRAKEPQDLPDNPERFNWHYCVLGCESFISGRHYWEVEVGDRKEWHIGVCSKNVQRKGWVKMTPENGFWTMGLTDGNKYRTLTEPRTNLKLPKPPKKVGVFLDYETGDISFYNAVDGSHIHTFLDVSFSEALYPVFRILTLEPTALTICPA

binding result [1]: no binding
B1: VSIG8-FLAG (receptor, human, UniProt P0DPA2 22-414, looked up)
immunoprecipitated protein: VRINGDGQEVLYLAEGDNVRLGCPYVLDPEDYGPNGLDIEWMQVNSDPAHHRENVFLSYQDKRINHGSLPHLQQRVRFAASDPSQYDASINLMNLQVSDTATYECRVKKTTMATRKVIVTVQARPAVPMCWTEGHMTYGNDVVLKCYASGGSQPLSYKWAKISGHHYPYRAGSYTSQHSYHSELSYQESFHSSINQGLNNGDLVLKDISRADDGLYQCTVANNVGYSVCVVEVKVSDSRRIGVIIGIVLGSLLALGCLAVGIWGLVCCCCGGSGAGGARGAFGYGNGGGVGGGACGDLASEIREDAVAPGCKASGRGSRVTHLLGYPTQNVSRSLRRKYAPPPCGGPEDVALAPCTAAAACEAGPSPVYVKVKSAEPADCAEGPVQCKNGLLV
notes: full-length, tagged; also called VSIG8 full-length (co-IP)

binding result [2]: binds
binding result [3]: binds
binding result [4]: no binding
binding result [5]: no binding
binding result [6]: no binding
binding result [7]: no binding
binding result [8]: no binding
binding result [9]: no binding
B2: SLITRK2 extracellular domain (receptor, human, UniProt Q9H156 22-621, looked up)
chain: RKTAKDICKIRCLCEEKENVLNINCENKGFTTVSLLQPPQYRIYQLFLNGNLLTRLYPNEFVNYSNAVTLHLGNNGLQEIRTGAFSGLKTLKRLHLNNNKLEILREDTFLGLESLEYLQADYNYISAIEAGAFSKLNKLKVLILNDNLLLSLPSNVFRFVLLTHLDLRGNRLKVMPFAGVLEHIGGIMEIQLEENPWNCTCDLLPLKAWLDTITVFVGEIVCETPFRLHGKDVTQLTRQDLCPRKSASDSSQRGSHADTHVQRLSPTMNPALNPTRAPKASRPPKMRNRPTPRVTVSKDRQSFGPIMVYQTKSPVPLTCPSSCVCTSQSSDNGLNVNCQERKFTNISDLQPKPTSPKKLYLTGNYLQTVYKNDLLEYSSLDLLHLGNNRIAVIQEGAFTNLTSLRRLYLNGNYLEVLYPSMFDGLQSLQYLYLEYNVIKEIKPLTFDALINLQLLFLNNNLLRSLPDNIFGGTALTRLNLRNNHFSHLPVKGVLDQLPAFIQIDLQENPWDCTCDIMGLKDWTEHANSPVIINEVTCESPAKHAGEILKFLGREAICPDSPNLSDGTVLSMNHNTDTPRSLSVSPSSYPELHTEVPLSVL
notes: extracellular domain; Soluble query, streptavidin tetramer; also called SLITKR2

binding result [10]: no binding
B3: BTN2A2 extracellular domain (receptor, human, UniProt Q8WVV5 33-265, looked up)
chain: QFTVVGPANPILAMVGENTTLRCHLSPEKNAEDMEVRWFRSQFSPAVFVYKGGRERTEEQMEEYRGRITFVSKDINRGSVALVIHNVTAQENGIYRCYFQEGRSYDEAILRLVVAGLGSKPLIEIKAQEDGSIWLECISGGWYPEPLTVWRDPYGEVVPALKEVSIADADGLFMVTTAVIIRDKYVRNVSCSVNNTLLGQEKETVIFIPESFMPSASPWMVALAVILTASPWM
notes: extracellular domain; Soluble query, streptavidin tetramer
